Measurements from patent US20150232544A1.

Assays:
eTau2 = eTau2 (UniProt P10636); experiment: relative binding affinity, method not named; eTau 2
eTau1b = eTau1b (UniProt P10636); experiment: relative binding affinity, method not named; eTau 1b

UniProt P10636, sequence (P10636 other isoform, or with tags, fused parts or gaps): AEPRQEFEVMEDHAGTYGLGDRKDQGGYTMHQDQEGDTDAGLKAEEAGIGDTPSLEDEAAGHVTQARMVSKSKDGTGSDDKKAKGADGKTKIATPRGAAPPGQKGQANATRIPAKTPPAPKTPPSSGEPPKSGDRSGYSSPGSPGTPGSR

| Binder | Kd (eTau2) | Kd (eTau1b) |
| --- | --- | --- |
| humanized IPN002 variant VH1/Vk2 (antibody, V domains shown) VH: EVHLVESGGALVKPGGSLRLSCAASGFSFSKYGMSWVRQAPGKGLEWVATISSSGSRTYYPDSVKGRFTISRDNAKNTLYLQMSSLKSEDTAMYYCSISWDGAMDYWGQGTSVTVSS VL: DVVMTQSPLSLPVTLGQPASISCKSSQSIVHSNGNTYLEWYLQKPGQSPQLLVYKVSNRFSGVPDRFSGSGSGTDFTLKISRVEAEDVGTYYCFQGSLVPWAFGGGTKVEIK | 361 pM | 558 pM |
| humanized IPN002 variant VH2/Vk3 (antibody, V domains shown) VH: EVHLVESGGALVKPGGSLRLSCAASGFSFSKYGMSWVRQAPGKGLEWVATISSSGSRTYYPDSVKGRFTISRDNAKNTLYLQMNSLRAEDTAMYYCSISWDGAMDYWGQGTTVTVSS VL: DVVMTQSPLSLPVTLGQPASISCKSSQSIVHSNGNTYLEWYLQKPGQSPQLLVYKVSNRFSGVPDRFSGSGSGTDFTLKISRVEAEDVGVYYCFQGSLVPWAFGGGTKVEIK | 261 pM | 287 pM |
| humanized IPN002 variant VH2/Vk1 (antibody, V domains shown) VH: EVHLVESGGALVKPGGSLRLSCAASGFSFSKYGMSWVRQAPGKGLEWVATISSSGSRTYYPDSVKGRFTISRDNAKNTLYLQMNSLRAEDTAMYYCSISWDGAMDYWGQGTTVTVSS VL: DVLMTQSPLSLPVTLGQPASISCKSSQSIVHSNGNTYLEWYLQKPGQSPQLLVYKVSNRFSGVPDRFSGSGSGTDFTLKISRVEAEDVGTYYCFQGSLVPWAFGGGTKVEIK | 225 pM | 215 pM |
| humanized IPN002 variant VH1/Vk3 (antibody, V domains shown) VH: EVHLVESGGALVKPGGSLRLSCAASGFSFSKYGMSWVRQAPGKGLEWVATISSSGSRTYYPDSVKGRFTISRDNAKNTLYLQMSSLKSEDTAMYYCSISWDGAMDYWGQGTSVTVSS VL: DVVMTQSPLSLPVTLGQPASISCKSSQSIVHSNGNTYLEWYLQKPGQSPQLLVYKVSNRFSGVPDRFSGSGSGTDFTLKISRVEAEDVGVYYCFQGSLVPWAFGGGTKVEIK | 444 pM | 590 pM |
| humanized IPN002 variant VH2/Vk2 (antibody, V domains shown) VH: EVHLVESGGALVKPGGSLRLSCAASGFSFSKYGMSWVRQAPGKGLEWVATISSSGSRTYYPDSVKGRFTISRDNAKNTLYLQMNSLRAEDTAMYYCSISWDGAMDYWGQGTTVTVSS VL: DVVMTQSPLSLPVTLGQPASISCKSSQSIVHSNGNTYLEWYLQKPGQSPQLLVYKVSNRFSGVPDRFSGSGSGTDFTLKISRVEAEDVGTYYCFQGSLVPWAFGGGTKVEIK | 283 pM | 229 pM |
| humanized IPN002 variant VH1/Vk4 (antibody, V domains shown) VH: EVHLVESGGALVKPGGSLRLSCAASGFSFSKYGMSWVRQAPGKGLEWVATISSSGSRTYYPDSVKGRFTISRDNAKNTLYLQMSSLKSEDTAMYYCSISWDGAMDYWGQGTSVTVSS VL: DVVMTQSPLSLPVTLGQPASISCKSSQSIVHSNGNTYLEWYLQKPGQSPQLLIYKVSNRFSGVPDRFSGSGSGTDFTLKISRVEAEDVGVYYCFQGSLVPWAFGGGTKVEIK | 427 pM | 597 pM |
| humanized IPN002 variant VH1/Vk1 (antibody, V domains shown) VH: EVHLVESGGALVKPGGSLRLSCAASGFSFSKYGMSWVRQAPGKGLEWVATISSSGSRTYYPDSVKGRFTISRDNAKNTLYLQMSSLKSEDTAMYYCSISWDGAMDYWGQGTSVTVSS VL: DVLMTQSPLSLPVTLGQPASISCKSSQSIVHSNGNTYLEWYLQKPGQSPQLLVYKVSNRFSGVPDRFSGSGSGTDFTLKISRVEAEDVGTYYCFQGSLVPWAFGGGTKVEIK | 465 pM | 737 pM |
| humanized IPN002 variant VH2/Vk4 (antibody, V domains shown) VH: EVHLVESGGALVKPGGSLRLSCAASGFSFSKYGMSWVRQAPGKGLEWVATISSSGSRTYYPDSVKGRFTISRDNAKNTLYLQMNSLRAEDTAMYYCSISWDGAMDYWGQGTTVTVSS VL: DVVMTQSPLSLPVTLGQPASISCKSSQSIVHSNGNTYLEWYLQKPGQSPQLLIYKVSNRFSGVPDRFSGSGSGTDFTLKISRVEAEDVGVYYCFQGSLVPWAFGGGTKVEIK | 354 pM | 520 pM |

Now from value to binder:

| Kd (eTau2) | Kd (eTau1b) | Binder |
| --- | --- | --- |
| 447 pM | 382 pM | humanized IPN002 variant VH3/Vk4 (antibody, V domains shown) VH: EVQLVESGGALVKPGGSLRLSCAASGFSFSKYGMSWVRQAPGKGLEWVATISSSGSRTYYPDSVKGRFTISRDNAKNTLYLQMNSLRAEDTAMYYCSISWDGAMDYWGQGTTVTVSS VL: DVVMTQSPLSLPVTLGQPASISCKSSQSIVHSNGNTYLEWYLQKPGQSPQLLIYKVSNRFSGVPDRFSGSGSGTDFTLKISRVEAEDVGVYYCFQGSLVPWAFGGGTKVEIK |
| 408 pM | 614 pM | humanized IPN002 variant VH3/Vk2 (antibody, V domains shown) VH: EVQLVESGGALVKPGGSLRLSCAASGFSFSKYGMSWVRQAPGKGLEWVATISSSGSRTYYPDSVKGRFTISRDNAKNTLYLQMNSLRAEDTAMYYCSISWDGAMDYWGQGTTVTVSS VL: DVVMTQSPLSLPVTLGQPASISCKSSQSIVHSNGNTYLEWYLQKPGQSPQLLVYKVSNRFSGVPDRFSGSGSGTDFTLKISRVEAEDVGTYYCFQGSLVPWAFGGGTKVEIK |
| 451 pM | 483 pM | humanized IPN002 variant VH4/Vk2 (antibody, V domains shown) VH: EVQLVESGGALVKPGGSLRLSCAASGFSFSKYGMSWVRQAPGKGLEWVATISSSGSRTYYPDSVKGRFTISRDNAKNTLYLQMNSLRAEDTAMYYCAISWDGAMDYWGQGTTVTVSS VL: DVVMTQSPLSLPVTLGQPASISCKSSQSIVHSNGNTYLEWYLQKPGQSPQLLVYKVSNRFSGVPDRFSGSGSGTDFTLKISRVEAEDVGTYYCFQGSLVPWAFGGGTKVEIK |
| 405 pM | 359 pM | humanized IPN002 variant VH4/Vk1 (antibody, V domains shown) VH: EVQLVESGGALVKPGGSLRLSCAASGFSFSKYGMSWVRQAPGKGLEWVATISSSGSRTYYPDSVKGRFTISRDNAKNTLYLQMNSLRAEDTAMYYCAISWDGAMDYWGQGTTVTVSS VL: DVLMTQSPLSLPVTLGQPASISCKSSQSIVHSNGNTYLEWYLQKPGQSPQLLVYKVSNRFSGVPDRFSGSGSGTDFTLKISRVEAEDVGTYYCFQGSLVPWAFGGGTKVEIK |
| 564 pM | 535 pM | humanized IPN002 variant VH4/Vk4 (antibody, V domains shown) VH: EVQLVESGGALVKPGGSLRLSCAASGFSFSKYGMSWVRQAPGKGLEWVATISSSGSRTYYPDSVKGRFTISRDNAKNTLYLQMNSLRAEDTAMYYCAISWDGAMDYWGQGTTVTVSS VL: DVVMTQSPLSLPVTLGQPASISCKSSQSIVHSNGNTYLEWYLQKPGQSPQLLIYKVSNRFSGVPDRFSGSGSGTDFTLKISRVEAEDVGVYYCFQGSLVPWAFGGGTKVEIK |
| 473 pM | 313 pM | humanized IPN002 variant VH4/Vk3 (antibody, V domains shown) VH: EVQLVESGGALVKPGGSLRLSCAASGFSFSKYGMSWVRQAPGKGLEWVATISSSGSRTYYPDSVKGRFTISRDNAKNTLYLQMNSLRAEDTAMYYCAISWDGAMDYWGQGTTVTVSS VL: DVVMTQSPLSLPVTLGQPASISCKSSQSIVHSNGNTYLEWYLQKPGQSPQLLVYKVSNRFSGVPDRFSGSGSGTDFTLKISRVEAEDVGVYYCFQGSLVPWAFGGGTKVEIK |
| 705 pM | 529 pM | humanized IPN002 variant VH3/Vk1 (antibody, V domains shown) VH: EVQLVESGGALVKPGGSLRLSCAASGFSFSKYGMSWVRQAPGKGLEWVATISSSGSRTYYPDSVKGRFTISRDNAKNTLYLQMNSLRAEDTAMYYCSISWDGAMDYWGQGTTVTVSS VL: DVLMTQSPLSLPVTLGQPASISCKSSQSIVHSNGNTYLEWYLQKPGQSPQLLVYKVSNRFSGVPDRFSGSGSGTDFTLKISRVEAEDVGTYYCFQGSLVPWAFGGGTKVEIK |
| 471 pM | 689 pM | humanized IPN002 variant VH3/Vk3 (antibody, V domains shown) VH: EVQLVESGGALVKPGGSLRLSCAASGFSFSKYGMSWVRQAPGKGLEWVATISSSGSRTYYPDSVKGRFTISRDNAKNTLYLQMNSLRAEDTAMYYCSISWDGAMDYWGQGTTVTVSS VL: DVVMTQSPLSLPVTLGQPASISCKSSQSIVHSNGNTYLEWYLQKPGQSPQLLVYKVSNRFSGVPDRFSGSGSGTDFTLKISRVEAEDVGVYYCFQGSLVPWAFGGGTKVEIK |
